The text below walks through data of patent US20260062463A1 (KANGYUAN BIOMEDICAL TECH DALIAN, published 2026).

Assay in all cases: SPR, AAV amine-coupled to CM5 chip
For orientation: Surface plasmon resonance follows binding to a sensor surface in real time, without labels.

The target in one test is T1, AAV5 (adeno-associated virus 5, Assembled 60-mer capsid of VP1/VP2/VP3 (nested products of one cap gene), amine-coupled to a CM5 chip; the letters give one VP1 subunit only.).
T1 construct: also called adeno-associated virus serotype 5

For a further test, the target named is T2, AAV8 (adeno-associated virus 8, Assembled 60-mer capsid of VP1/VP2/VP3 (nested products of one cap gene), amine-coupled to a CM5 chip; the letters give one VP1 subunit only.).
T2 construct: also called adeno-associated virus serotype 8
T2 chain: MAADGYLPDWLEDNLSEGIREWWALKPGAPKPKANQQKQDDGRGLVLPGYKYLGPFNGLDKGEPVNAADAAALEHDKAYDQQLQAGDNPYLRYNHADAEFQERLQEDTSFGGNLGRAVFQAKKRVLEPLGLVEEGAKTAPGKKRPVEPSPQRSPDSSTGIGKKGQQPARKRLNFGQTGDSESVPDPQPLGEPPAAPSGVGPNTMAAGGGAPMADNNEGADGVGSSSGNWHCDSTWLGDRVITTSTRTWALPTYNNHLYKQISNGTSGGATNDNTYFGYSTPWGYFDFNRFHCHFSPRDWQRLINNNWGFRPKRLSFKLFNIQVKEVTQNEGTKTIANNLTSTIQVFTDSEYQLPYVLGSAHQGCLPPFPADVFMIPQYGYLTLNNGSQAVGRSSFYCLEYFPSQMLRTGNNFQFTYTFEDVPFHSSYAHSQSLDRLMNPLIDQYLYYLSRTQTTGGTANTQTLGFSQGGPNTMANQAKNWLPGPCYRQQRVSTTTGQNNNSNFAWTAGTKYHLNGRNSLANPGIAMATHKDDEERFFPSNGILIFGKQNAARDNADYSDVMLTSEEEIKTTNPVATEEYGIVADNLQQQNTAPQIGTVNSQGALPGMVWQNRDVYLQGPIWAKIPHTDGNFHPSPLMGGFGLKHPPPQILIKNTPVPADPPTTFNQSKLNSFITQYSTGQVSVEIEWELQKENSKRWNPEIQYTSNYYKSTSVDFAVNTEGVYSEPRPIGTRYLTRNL

The target in the next test is T3, AAV9 (adeno-associated virus 9, Assembled 60-mer capsid of VP1/VP2/VP3 (nested products of one cap gene), amine-coupled to a CM5 chip; the letters give one VP1 subunit only.).
T3 construct: also called adeno-associated virus serotype 9

Substitutions are numbered along the chain they refer to.

Broadly, the Kd is the concentration at which binding is half-saturated. Read a low Kd as a tighter complex. One may read the koff as the rate constant with which the complex falls apart. A high value points to a short-lived complex. One may read the kon as a measure of how fast the partners come together.

B1: A4-C4 (bispecific antibody)
chain: VQLQESGGGLVQAGGSLRLSCAASGSRFSINTMGWYRQAPGKQREFVATVTRGGNTNYAESVKGRFTISRDNAKNTVYLQMNSLRPEDTAVYYCHVDEVRDSSWTTSNIWGQGTQVTVSSGGGGSGGGGSGGGGSVQLQESGGGLVQAGGSLRLSCAASGSRFSINTMGWYRQAPGKQREFVATVTRGGNTNYAESVKGRFTISRDNAKNTVYLQMNSLRPEDTAVYYCHVDEVRDSSWTTSNIWGQGTQVTVSSGGGGSGGGGSGGGGSVQLQESGGGLVQPGGSLRLSCAASGSNFRINTMGWYRQAPGKQRELVATVTRGGSTNYADSVKGRFTISRDNPKDTVYLQMNSLRPEDTAVYYCHVDEVRESSWTTSNLWGQGTQVTVSS
For the molecule B1, the values for the Kd with AAV5, with AAV8 and with AAV9 were 6.72 nM, 2.36 nM and 1.87 nM, respectively. The koff in the test with AAV5 turned out to be 0.00121 s⁻¹; in the test with AAV8 it was 0.00025 s⁻¹; in the test with AAV9, 0.00031 s⁻¹. Moreover, the kon is 180000 M⁻¹ s⁻¹ in the test with AAV5, 106000 M⁻¹ s⁻¹ with AAV8 and 165000 M⁻¹ s⁻¹ with AAV9.

B2: A4-C9 (bispecific antibody)
chain: VQLQESGGGLVQPGGSLRLSCAASGSNFSINTMGWYRQAPGKQRELVATVTRGGDTNYADSVKGRFTISRDNAKNTVYLQMNSLRPEDTAVYYCHVDEIRESSWTTSNLWGQGTQVTVSSGGGGSGGGGSGGGGSVQLQESGGGLVQPGGSLRLSCAASGSNFSINTMGWYRQAPGKQRELVAALTRGGSTNYADSVKGRFTISRDNAKNTVYLQMNSLRPEDTAVYYCHVDEVRESSWTTSNLWGQGTQVTVSSGGGGSGGGGSGGGGSVQLQESGGGLVQPGGSLRLSCAASGSNFRINTMGWYRQAPGKQRELVAPVTRGGSTNYADSVKGRFTISRDNAKNTVYLQMNSLRPEDTAVYYCHVDEVRESSWTTSNLWGQGTQVTVSS
In the test with AAV5, B2 gave an equilibrium dissociation constant (Kd) of 0.777 nM, a koff of 5e-05 s⁻¹ and an association rate constant (kon) of 64300 M⁻¹ s⁻¹. For the same molecule, in the test with AAV8, binding was put at a Kd of 1.14 nM, the koff is 0.00013 s⁻¹ and the kon was 114000 M⁻¹ s⁻¹. In addition, in the test with AAV9, the equilibrium dissociation constant (Kd) turned out to be 0.669 nM, the koff was 0.00013 s⁻¹ and the kon was determined as 194000 M⁻¹ s⁻¹.

B3: A4-C6 (bispecific antibody)
chain: B2 chain with S29R, T49P, D55S, I99V, R299S, P319T, S325D, V369I
In the test with AAV5, B3 returned a Kd of 0.785 nM, a koff of 0.000139 s⁻¹ and a kon of 177000 M⁻¹ s⁻¹. In the test with AAV8, this molecule had a Kd of 2.67 nM, a koff of 0.00044 s⁻¹ and a kon of 165000 M⁻¹ s⁻¹. In the test with AAV9, this molecule had a Kd of 0.55 nM, a koff of 2.5e-05 s⁻¹ and an on-rate (kon) of 45400 M⁻¹ s⁻¹.

B4: A4-C5 (bispecific antibody)
chain: B2 chain with S29R, D55S, A73P, I99V, A184T, L185V, S190D, V234I, P319T, A343P
Take B4: the figures for the Kd with AAV5, in the test with AAV8 and in the test with AAV9 were 7.86 nM, 4.97 nM and 1.68 nM, respectively. The koff with AAV5 was 0.0013 s⁻¹; with AAV8, 0.00091 s⁻¹; with AAV9, 0.0002 s⁻¹. Moreover, the values for the kon with AAV5, with AAV8 and with AAV9 were 165000 M⁻¹ s⁻¹, 183000 M⁻¹ s⁻¹ and 119000 M⁻¹ s⁻¹, respectively.

B5: A4-C7 (bispecific antibody)
chain: B2 chain with S164R, A184P, L185V, N297S, R299T, P319A, D330G, V347I, V369I, E371Q
As for B5, the Kd with AAV5 was determined as 0.0732 nM; in the test with AAV8 it was 3.7 nM; with AAV9, 0.127 nM. Besides, the values for the koff with AAV5, in the test with AAV8 and with AAV9 were 3.2e-05 s⁻¹, 0.00047 s⁻¹ and 1.75e-05 s⁻¹, respectively. Moreover, the kon with AAV5 came out at 437000 M⁻¹ s⁻¹; with AAV8, 127000 M⁻¹ s⁻¹; in the test with AAV9, 137000 M⁻¹ s⁻¹.

B6: A4-C2 (VHH)
chain: VQLQESGGGLVQPGGSLRLSCAASGSAFSINTMGWYRQAPGKQRELVASVTPGGSTNYADSVKGRFTISRDNAKNTIYLQMNSLRPEDTAVYYCHLDEVRESSWTTSNLWGQGTQVTVSSGGGGSGGGGSGGGGSVQLQESGGGLVQPGGSLRLSCAASGSAFSINTMGWYRQAPGKQRELVASVTPGGSTNYADSVKGRFTISRDNAKNTIYLQMNSLRPEDTAVYYCHLDEVRESSWTTSNLWGQGTQVTVSSGGGGSGGGGSGGGGSVQLQESGGGLVQPGGSLRLSCAASGSAFSINTMGWYRQAPGKQRELVASVTPGGSTNYADSVKGRFTISRDNAKNTIYLQMNSLRPEDTAVYYCHLDEVRESSWTTSNLWGQGTQVTVSS
For the molecule B6, the dissociation constant Kd was 0.691 nM with AAV5, 0.359 nM with AAV8 and 0.486 nM with AAV9. Further, the koff with AAV5 turned out to be 0.000134 s⁻¹; in the test with AAV8 it was 5e-05 s⁻¹; in the test with AAV9, 0.000125 s⁻¹. In addition, the results for the kon in the test with AAV5, in the test with AAV8 and in the test with AAV9 were 194000 M⁻¹ s⁻¹, 139000 M⁻¹ s⁻¹ and 257000 M⁻¹ s⁻¹, respectively.

B7: A4-B2 (bispecific antibody)
chain: VQLQESGGGLVQAGGSLRLSCAASGSRFSINTMGWYRQAPGKQREFVATVTRGGNTNYAESVKGRFTISRDNAKNTVYLQMNSLRPEDTAVYYCHVDEVRDSSWTTSNIWGQGTQVTVSSGGGGSGGGGSGGGGSVQLQESGGGLVQAGGSLRLSCAASGSTFSINTMGWYRQAPGKQRELVATITRGGNTNYADSVKGRFTISRDNAKNTVYLQMNSLRPEDTAVYYCHVDEVRQSSWTTSNLWGQGTQVTVSS
For B7, the Kd in the test with AAV5 was 7.38 nM; with AAV8, 1.02 nM; with AAV9 it was 8.35 nM. Besides, the koff in the test with AAV5 was 0.00117 s⁻¹; with AAV8 it was 0.00014 s⁻¹; with AAV9, 0.0008 s⁻¹. Moreover, the kon in the test with AAV5 amounted to 159000 M⁻¹ s⁻¹; with AAV8, 138000 M⁻¹ s⁻¹; in the test with AAV9, 95800 M⁻¹ s⁻¹.

B8: A4-C1 (VHH)
chain: VQLQESGGGLVQPGGSLRLSCAASGSGFSINTMGWYRQAPGKQRELVATVTRDGSTNYADFVKGRFTISRDNAKNTVYLQMNSLRPEDTAVYYCHLDEVRESSWTTSNLWGQGTQVTVSSGGGGSGGGGSGGGGSVQLQESGGGLVQPGGSLRLSCAASGSGFSINTMGWYRQAPGKQRELVATVTRDGSTNYADFVKGRFTISRDNAKNTVYLQMNSLRPEDTAVYYCHLDEVRESSWTTSNLWGQGTQVTVSSGGGGSGGGGSGGGGSVQLQESGGGLVQPGGSLRLSCAASGSGFSINTMGWYRQAPGKQRELVATVTRDGSTNYADFVKGRFTISRDNAKNTVYLQMNSLRPEDTAVYYCHLDEVRESSWTTSNLWGQGTQVTVSS
For the molecule B8, the values for the equilibrium dissociation constant (Kd) with AAV5, with AAV8 and in the test with AAV9 were 13.2 nM, 9.2 nM and ≤ 1.03 nM, respectively. Also, the koff with AAV5 was 0.00138 s⁻¹; with AAV8 it was 0.00164 s⁻¹; with AAV9, ≤ 1e-05 s⁻¹. Moreover, the results for the kon in the test with AAV5, in the test with AAV8 and with AAV9 were 104000 M⁻¹ s⁻¹, 178000 M⁻¹ s⁻¹ and 9690 M⁻¹ s⁻¹, respectively.
